To fix the notation:
B1: Serine/threonine-protein kinase RAD53 (Saccharomyces cerevisiae), P22216 (parent)
chain: MENITQPTQQSTQATQRFLIEKFSQEQIGENIVCRVICTTGQIPIRDLSADISQVLKEKRSIKKVWTFGRNPACDYHLGNISRLSNKHFQILLGEDGNLLLNDISTNGTWLNGQKVEKNSNQLLSQGDEITVGVGVESDILSLVIFINDKFKQCLEQNKVDRIRSNLKNTSKIASPGLTSSTASSMVANKTGIFKDFSIIDEVVGQGAFATVKKAIERTTGKTFAVKIISKRKVIGNMDGVTRELEVLQKLNHPRIVRLKGFYEDTESYYMVMEFVSGGDLMDFVAAHGAVGEDAGREISRQILTAIKYIHSMGISHRDLKPDNILIEQDDPVLVKITDFGLAKVQGNGSFMKTFCGTLAYVAPEVIRGKDTSVSPDEYEERNEYSSLVDMWSMGCLVYVILTGHLPFSGSTQDQLYKQIGRGSYHEGPLKDFRISEEARDFIDSLLQVDPNNRSTAAKALNHPWIKMSPLGSQSYGDFSQISLSQSLSQQKLLENMDDAQYEFVKAQRKLQMEQQLQEQDQEDQDGKIQGFKIPAHAPIRYTQPKSIEAETREQKLLHSNNTENVKSSKKKGNGRFLTLKPLPDSIIQESLEIQQGVNPFFIGRSEDCNCKIEDNRLSRVHCFIFKKRHAVGKSMYESPAQGLDDIWYCHTGTNVSYLNNNRMIQGTKFLLQDGDEIKIIWDKNNKFVIGFKVEINDTTGLFNEGLGMLQEQRVVLKQTAEEKDLVKKLTQMMAAQRANQPSASSSSMSAKKPPVSDTNNNGNNSVLNDLVESPINANTGNILKRIHSVSLSQSQIDPSKKVKRAKLDQTSKGPENLQFS
partner: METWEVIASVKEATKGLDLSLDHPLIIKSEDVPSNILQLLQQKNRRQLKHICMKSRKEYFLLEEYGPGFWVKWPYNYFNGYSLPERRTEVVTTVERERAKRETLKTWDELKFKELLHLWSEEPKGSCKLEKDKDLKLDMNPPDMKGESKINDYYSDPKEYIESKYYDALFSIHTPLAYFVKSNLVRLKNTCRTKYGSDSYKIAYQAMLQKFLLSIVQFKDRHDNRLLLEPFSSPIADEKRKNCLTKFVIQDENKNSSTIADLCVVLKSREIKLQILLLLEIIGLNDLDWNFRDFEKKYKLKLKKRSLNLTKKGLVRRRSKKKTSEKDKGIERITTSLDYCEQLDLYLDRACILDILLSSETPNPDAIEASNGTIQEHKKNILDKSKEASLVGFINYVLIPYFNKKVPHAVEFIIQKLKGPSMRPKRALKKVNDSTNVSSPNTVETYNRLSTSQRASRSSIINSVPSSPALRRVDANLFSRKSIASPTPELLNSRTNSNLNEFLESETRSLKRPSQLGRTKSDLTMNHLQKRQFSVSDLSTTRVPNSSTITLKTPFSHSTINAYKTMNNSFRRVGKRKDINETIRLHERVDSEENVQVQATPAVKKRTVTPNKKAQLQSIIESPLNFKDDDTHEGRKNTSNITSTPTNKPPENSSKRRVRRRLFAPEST

In this assay the parent is B1. The note with it: with sld3_yeast SLD3, P53135.
For K227A, the “effect of a mutation on the interaction” value is “disrupting interaction”.
